Patent US8663616B2, “Enzymatic peracid generation for use in oral care products” (E I du Pont de Nemours and Company, priority 2010, dated 2014)
Positions count from the first letter of the chain named. In names and notes the source's numbering stands. Blank lines part the entries; values can stand above or below the molecule they belong to.

What was measured:
[1] = Peracetic acid generation from hydroxyapatite bound CE-7 perhydrolase fusions (Example 8); assay type: biochemical; details: for Peracetic acid (ppm): hydroxyapatite particles exposed to 10 μM enzyme, washed, 100 mM triacetin, 100 mM H2O2, 30 min, 37° C., no enzyme 30-118.8
Protocol: (§1) The detection of peracetic acid followed the method described in Pinkernell et. al. (Analyst, 1997, 122, 567) using colorimetric detection of 2,2′-azino-bis(3-ethylbenzothiazoline(-6-sulfonate (ABTS) oxidation by peracetic acid. Following the formation of peracetic acid with the addition of triacetin and hydrogen peroxide, 90 μL of solution was added to 10 μL of 0.1 M H3PO4 in a well plate. 50 μL of 1 M acetic acid, 50 μL of 0.5 g/L ABTS and 50 μL of 0.002 g/L of KI was added. The solution was allowed to develop for 5 min. The absorbance of the solution was measured at 405 nm using a microplate reader. The peracetic acid concentration was calculated based on a standard curve developed simultaneously using peracetic acid reagent solution.
To assess binding of these constructs to hydroxyapatite, 33 mg of hydroxyapatite particles (Macro-prep Ceramic Hydroxyapatite TYPE I, 80 μm size BioRad, Hercules, Calif.), were washed with 10 mM phosphate buffer at pH 7.2. After removing the supernatant, enzyme stock solution was added to the hydroxyapatite dispersion to a final concentration of 10 μM and incubated for 30 min in a microcentrifuge tube with gentle agitation. Each sample was centrifuged for 1 min at 10000 rpm. The supernatant was removed and additional buffer was added. The particles were resuspended and transferred to a new tube. The process was repeated two additional times. The hydroxyapatite bound enzyme activity was measured by adding a 500 μl solution containing 100 mM triacetin, 100 mM H2O2 in 100 mM phosphate buffer, pH 7.2. The solution was incubated for 30 min, at 37° C. An aliquot was removed and mixed with H3PO4 and properly diluted for detection via ABTS oxidation as described in Example 7. The experiments were performed at different day with no enzyme as control for each experiment.

[2] = T. maritima C277S/C277T constructs, peracetic acid when bound to bovine enamel (Example 11); assay type: biochemical; details: bovine enamel exposed to 10 μM enzyme, 4 washes; 100 mM triacetin, 100 mM H2O2, 30 min, 37° C.; no enzyme 570
Protocol: as §1
The perhydrolase enzymes were also assessed for binding to bovine enamel substrates. Enamel substrates were prepared as described in Example 2 and 3. Each enamel block was hydrated in water for overnight at room temperature (˜22° C.). The enamel blocks were then equilibrated with 10 mM potassium phosphate buffer, pH7.2, for 10 min. The enamel substrates were rinsed 3 times the buffer. The enamel wells were filled with 500 μL of 10 μM enzyme solutions which was prepared by diluting in 10 mM phosphate buffer. The samples were incubated for 30 min with slow shaking at 37° C. The non-binding enzyme was removed by washing 4 times with phosphate buffer. Then, each enamel block was embedded inside a putty filled 24-well plate, with only the enamel top surface exposed. The perhydrolase activity from enamel bound enzyme was measured as described in Example 8. 100 μL reaction mixtures (100 mM phosphate buffer, pH7.2 and 100 mM H2O2 and 100 mM triacetin) was added on top of the enamel and incubated for 30 min at 37° C. A 90 μL aliquot was removed for detection via ABTS oxidation as noted in Example 8. Each sample data point represents an average of 3 independent enamel blocks.

[3] = T. maritima C277S/C277T constructs, peracetic acid in solution (Example 11); assay type: biochemical; details: 0.5 μM enzyme, 100 mM triacetin, 100 mM H2O2, pH 7.2, 10 min, 37° C.; no enzyme 114
Protocol: as §1
Perhydrolase enzymes listed in Table 5 were assessed for enzyme activity in solution as described in Example 7. The enzyme activity in solution was measured by making a 500 μl solution of 0.5 μM of each enzyme in 100 mM triacetin, 100 mM H2O2 and 10 mM phosphate buffer, pH 7.2. The solution was incubated for 10 min, at 37° C. After the reaction was stopped by mixing an aliquot with H3PO4, a 10 μL aliquot was removed for proper dilution, and then detected via ABTS oxidation as described in Example 7.

[4] = Retention of perhydrolase on hydroxyapatite (SDS-PAGE band strength); assay type: binding; details: relative to enzyme input = 1
Protocol: Perhydrolase enzymes listed in Table 6 were assessed for binding to hydroxyapatite. A dispersion of hydroxyapatite nanoparticles (Aldrich 677418) was made at 0.5% solids in 10 mM phosphate buffer at pH 7.2. Enzyme stock solution was added to the hydroxyapatite dispersion to a final concentration of 10 μM and incubated for 30 min in a microcentrifuge tube with gentle agitation. Each sample was centrifuged for 5 min at 10000 rpm. The supernatant was removed and additional buffer was added. The particles were resuspended and transferred to a new tube. The process was repeated two additional times. Samples of the original input of enzyme, the supernatant removed from the particles with each wash step and the final particles were prepared for SDS-PAGE analysis by combining 60 μL of sample, 20 μL of LDS buffer and 8 μL of reducing agent (Nu-PAGE). Samples were heated at 85° C. for 10 min. 25 μL of each sample was loaded on a 4-12% BisTris gel (Invitrogen) and run at 115 volts for 1.5 h. The gel was removed and stained with a 1:1 dilution of Simply Blue stain (Invitrogen) overnight and destained for 4 h in deionized water. The gel was analyzed and detection of enzyme in each fraction was estimated based on the presence of a band. The results of the analysis are provided in Table 7 with an indication of the relative strength of each band in the gel compared to the enzyme input (input=1) to determine the strength of binding between the hydroxyapatite surface and each enzyme.

[5] = Peracetic acid generated in solution by CE-7 perhydrolase fusions (Example 8); assay type: biochemical; details: 0.5 μM enzyme, 100 mM triacetin, 100 mM H2O2, pH 7.2, 10 min, 37° C.; no enzyme 378.9
Protocol: as §1
Perhydrolase enzymes listed in Table 6 were assessed for solution activities. The method to measure the perhydrolase in solution activity was described in Example 7 by making a 500 μL solution containing 0.5 μM of enzyme, 100 mM triacetin, 100 mM H2O2 in 100 mM phosphate buffer, pH 7.2. The solution was mixed and incubated for 10 min at 37° C. A 10 μL aliquot was removed and diluted for detection as described in Example 7. Peracetic acid concentration was determined using a standard curve generated with a stock solution of peracetic acid (Aldrich). The experiment was also performed with no enzyme present as a control.

B2: EZ-15: C277T-link1-H6, SEQ ID NO: 439 (protein)
chain: MAFFDLPLEELKKYRPERYEEKDFDEFWEETLAESEKFPLDPVFERMESHLKTVEAYDVTFSGYRGQRIKGWLLVPKLEEEKLPCVVQYIGYNGGRGFPHDWLFWPSMGYICFVMDTRGQGSGWLKGDTPDYPEGPVDPQYPGFMTRGILDPRTYYYRRVFTDAVRAVEAAASFPQVDQERIVIAGGSQGGGIALAVSALSKKAKALLCDVPFLCHFRRAVQLVDTHPYAEITNFLKTHRDKEEIVFRTLSYFDGVNFAARAKIPALFSVGLMDNITPPSTVFAAYNYYAGPKEIRIYPYNNHEGGGSFQAVEQVKFLKKLFEKGGPGSGGAGSPGSAGGPGSHHHHHH
Peracetic acid (ppm) On Enamel [2]: 631 ppm
Peracetic acid (ppm) In Solution [3]: 5921 ppm

B3: EZ-31: Mlo-link1-HC263-H6, SEQ ID NO: 455 (protein)
chain: MPFPDLIQPELGAYVSSVGMPDDFAQFWTSTIAEARQAGGEVSIVQAQTTLKAVQSFDVTFPGYGGHPIKGWLILPTHHKGRLPLVVQYIGYGGGRGLAHEQLHWAASGFAYFRMDTRGQGSDWSVGETADPVGSTSSIPGFMTRGVLDKNDYYYRRLFTDAVRAIDALLGLDFVDPERIAVCGDSQGGGISLAVGGIDPRVKAVMPDVPFLCDFPRAVQTAVRDPYLEIVRFLAQHREKKAAVFETLNYFDCVNFARRSKAPALFSVALMDEVCPPSTVYGAFNAYAGEKTITEYEFNNHEGGQGYQERQQMTWLSRLFGVGGPGSGGAGSPGSAGGPGSPSAQSQLPDKHSGLHERAPQRYGPEPEPEPEPIPEPPKEAPVVIEKPKPKPKPKPKPPAHDHKNQKETHQRHAAGSGGGGSPHHHHHH
PAA (ppm) [5]: 434.9 ppm
Peracetic acid (ppm) [1]: 241.4 ppm

B4: EZ-33: Lla-link1-H6, SEQ ID NO: 457 (protein)
chain: MTKINNWQDYQGSSLKPEDFDKFWDEKINLVSNHQFEFELIEKNLSSKVVNFYHLWFTAIDGAKIHAQLIVPKNLKEKYPAILQFHGYHCDSGDWVDKIGIVAEGNVVLALDCRGQGGLSQDNIQTMGMTMKGLIVRGIDEGYENLYYVRQFMDLITATKILSEFDFVDETNISAQGASQGGALAVACAALSPLIKKVTATYPFLSDYRKAYELGAEESAFEELPYWFQFKDPLHLREDWFFNQLEYIDIQNLAPRIKAEVIWILGGKDTVVPPITQMAAYNKIQSKKSLYVLPEYGHEYLPKISDWLRENQGPGSGGAGSPGSAGGPGSHHHHHH
PAA (ppm) [5]: 1062.5 ppm
Peracetic acid (ppm) [1]: 359.1 ppm

B7: EZ-32: Mlo-link1-DenP308-H6, SEQ ID NO: 456 (protein)
chain: MPFPDLIQPELGAYVSSVGMPDDFAQFWTSTIAEARQAGGEVSIVQAQTTLKAVQSFDVTFPGYGGHPIKGWLILPTHHKGRLPLVVQYIGYGGGRGLAHEQLHWAASGFAYFRMDTRGQGSDWSVGETADPVGSTSSIPGFMTRGVLDKNDYYYRRLFTDAVRAIDALLGLDFVDPERIAVCGDSQGGGISLAVGGIDPRVKAVMPDVPFLCDFPRAVQTAVRDPYLEIVRFLAQHREKKAAVFETLNYFDCVNFARRSKAPALFSVALMDEVCPPSTVYGAFNAYAGEKTITEYEFNNHEGGQGYQERQQMTWLSRLFGVGGPGSGGAGSPGSAGGPGSDPTKPPRTPTANTSRPHHNFGSGGGGSPHHHHHH
PAA (ppm) [5]: 497.7 ppm
Peracetic acid (ppm) [1]: 419.3 ppm

Now from value to molecule, other results behind:

Peracetic acid (ppm) [1]: 1885.1 ppm
Unbound (relative band strength) ([4]; 10 μM enzyme, 0.5% hydroxyapatite, pH 7.2): 0.9
HAP Particles (relative band strength) ([4]; enzyme retained on particles after washes): 0.05
Wash1 (relative band strength) [4]: 0.01
Wash2 (relative band strength) [4]: 0.00
B1: EZ-9: C277S-link1-H6, SEQ ID NO: 430 (protein)
chain: B2 chain with T277S
Peracetic acid (ppm) On Enamel [2]: 612 ppm
Peracetic acid (ppm) In Solution [3]: 5499 ppm

PAA (ppm) [5]: 2273.5 ppm
Peracetic acid (ppm) [1]: 1299.8 ppm
B5: EZ-29: Bpu-link1-DenP308-H6, SEQ ID NO: 453 (protein)
chain: MQLFDLSLEELKKYKPKKTARPDFSDFWKKSLEELRQVEAEPTLESYDYPVKGVKVYRLTYQSFGHSKIEGFYAVPDQTGPHPALVRFHGYNASYDGGIHDIVNWALHGYATFGMLVRGQGGSEDTSVTPGGHALGWMTKGILSKDTYYYRGVYLDAVRALEVIQSFPEVDEHRIGVIGGSQGGALAIAAAALSDIPKVVVADYPYLSNFERAVDVALEQPYLEINSYFRRNSDPKVEEKAFETLSYFDLINLAGWVKQPTLMAIGLIDKITPPSTVFAAYNHLETDKDLKVYRYFGHEFIPAFQTEKLSFLQKHLLLSTGPGSGGAGSPGSAGGPGSDPTKPPRTPTANTSRPHHNFGSGGGGSPHHHHHH
activity after binding to hydroxyapatite (in words) ([1]; targeted vs untargeted B. pumilus fusion): higher binding activity compared to the untargeted EZ-27

PAA (ppm) [5]: 468.8 ppm
Peracetic acid (ppm) [1]: 658.5 ppm
B6: EZ-30: Mlo-link1-H6, SEQ ID NO: 454 (protein)
chain: MPFPDLIQPELGAYVSSVGMPDDFAQFWTSTIAEARQAGGEVSIVQAQTTLKAVQSFDVTFPGYGGHPIKGWLILPTHHKGRLPLVVQYIGYGGGRGLAHEQLHWAASGFAYFRMDTRGQGSDWSVGETADPVGSTSSIPGFMTRGVLDKNDYYYRRLFTDAVRAIDALLGLDFVDPERIAVCGDSQGGGISLAVGGIDPRVKAVMPDVPFLCDFPRAVQTAVRDPYLEIVRFLAQHREKKAAVFETLNYFDCVNFARRSKAPALFSVALMDEVCPPSTVYGAFNAYAGEKTITEYEFNNHEGGQGYQERQQMTWLSRLFGVGGPGSGGAGSPGSAGGPGSHHHHHH
